The source of these data is patent US20180016344A1 (MacroGenics, published 2018).

In experiment [1] the target is T1, His-tagged cynomolgus monkey DR5 (cynomolgus monkey).
T1 construct: also called His-tagged DR5 (cynomolgus monkey)
The experiment is described as follows: Biacore (SPR); DR5×CD3 diabody with His-tagged cynomolgus monkey DR5.
Protocol: Bispecific DR5×CD3 diabodies were incubated with His-tagged DR5 and the kinetics of binding was determined via Biacore analysis.

The next experiment concerns the target T2, histidine tagged TRAIL (UniProt P50591 114-281, limits assumed).
T2 construct: also called TRAIL-His; TRAIL ligand; not shown: histidine tag
The experiment can be described thus: ELISA, biotinylated antibody on TRAIL-His coat.

For a further experiment, the target named is T3, human DR5 (human, UniProt O14763 56-440).
T3 construct: also called Death Receptor 5; TRAIL-R2
The experiment can be described thus: antibody titration read as MFI (log axis) against concentration in nM; the text does not describe the assay format or how DR5 was presented (Example 2).

T3 sequence (O14763 other isoform, or with tags, fused parts or gaps): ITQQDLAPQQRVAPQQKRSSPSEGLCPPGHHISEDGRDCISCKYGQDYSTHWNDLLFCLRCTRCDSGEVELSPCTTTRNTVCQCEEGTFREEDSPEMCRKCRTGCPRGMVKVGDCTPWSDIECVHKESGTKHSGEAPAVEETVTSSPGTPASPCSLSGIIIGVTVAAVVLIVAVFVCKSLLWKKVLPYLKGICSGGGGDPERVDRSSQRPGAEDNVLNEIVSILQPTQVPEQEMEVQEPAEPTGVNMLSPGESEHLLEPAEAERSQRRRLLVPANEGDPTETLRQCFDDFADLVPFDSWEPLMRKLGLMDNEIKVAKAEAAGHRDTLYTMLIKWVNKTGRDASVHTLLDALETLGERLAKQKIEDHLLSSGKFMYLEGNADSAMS
Protocol for histidine tagged TRAIL: The amount of immobilized biotinylated antibody was assessed.

B1: DR5 mAb 2×CD3 mAb 2 (bispecific antibody)
chain 1: DIVMTQSHKFMSTSVGDRVSITCKASQDVNTAVAWYQQKPGQSPKLLIYWASTRHTGVPDRFTGSGSGTDYTLTIKSVQAEDLTLYYCQQHYITPWTFGGGTKLEIKGGGSGGGGEVQLVESGGGLVQPGGSLRLSCAASGFTFSTYAMNWVRQAPGKGLEWVGRIRSKYNNYATYYADSVKGRFTISRDDSKNSLYLQMNSLKTEDTAVYYCVRHGNFGNSYVSWFAYWGQGTLVTVSSASTKGEVAACEKEVAALEKEVAALEKEVAALEK
chain 2: QAVVTQEPSLTVSPGGTVTLTCRSSTGAVTTSNYANWVQQKPGQAPRGLIGGTNKRAPWTPARFSGSLLGGKAALTITGAQAEDEADYYCALWYSNLWVFGGGTKLTVLGGGGSGGGGKVQLQQSGAELVKPGASVKLSCKASGYTFTEYILHWVKQKSGQGLEWIGWFYPGNNNIKYNEKFKDKATLTADKSSSTVYMELSRLTSEDSAVYFCARHEQGPGYFDYWGQGTTLTVSSASTKGKVAACKEKVAALKEKVAALKEKVAALKE
notes: also called DR5 mAb 2×CD3 mAb 2 diabody
B1: in experiment [1], the Kd was 0.42 nM.

B2: DR5 mAb 1×CD3 mAb 2 (bispecific antibody)
chain 1: DIVLTQSPASLAVSLGQRATISCRASKSVSSSGYSYMHWYQQKPGQPPKVLIFLSSNLDSGVPARFSGSGSGTDFTLNIHPVEDGDAATYYCQHSRDLPPTFGGGTKLEIKGGGSGGGGEVQLVESGGGLVQPGGSLRLSCAASGFTFSTYAMNWVRQAPGKGLEWVGRIRSKYNNYATYYADSVKGRFTISRDDSKNSLYLQMNSLKTEDTAVYYCVRHGNFGNSYVSWFAYWGQGTLVTVSSASTKGEVAACEKEVAALEKEVAALEKEVAALEK
chain 2: QAVVTQEPSLTVSPGGTVTLTCRSSTGAVTTSNYANWVQQKPGQAPRGLIGGTNKRAPWTPARFSGSLLGGKAALTITGAQAEDEADYYCALWYSNLWVFGGGTKLTVLGGGGSGGGGEVKFLESGGGLVQPGGSLKLSCVASGFDFSRYWMSWVRQAPGKGLEWIGEINPDSNTINYTPSLKDKFIISRDNAKNTLYLQMTKVRSEDTALYYCTRRAYYGNPAWFAYWGQGTLVTVSSASTKGKVAACKEKVAALKEKVAALKEKVAALKE
notes: also called bispecific DR5×CD3 diabody
Take B2: in experiment [1], the Kd stood at 32.5 nM.

B3: DR5 mAb 4×CD3 mAb 2 (bispecific antibody)
chain 1: EIVLTQSPGTLSLSPGERATLSCRASQGISRSYLAWYQQKPGQAPSLLIYGASSRATGIPDRFSGSGSGTDFTLTISRLEPEDFAVYYCQQFGSSPWTFGQGTKVEIKGGGSGGGGEVQLVESGGGLVQPGGSLRLSCAASGFTFSTYAMNWVRQAPGKGLEWVGRIRSKYNNYATYYADSVKGRFTISRDDSKNSLYLQMNSLKTEDTAVYYCVRHGNFGNSYVSWFAYWGQGTLVTVSSASTKGEVAACEKEVAALEKEVAALEKEVAALEK
chain 2: QAVVTQEPSLTVSPGGTVTLTCRSSTGAVTTSNYANWVQQKPGQAPRGLIGGTNKRAPWTPARFSGSLLGGKAALTITGAQAEDEADYYCALWYSNLWVFGGGTKLTVLGGGGSGGGGQVQLQESGPGLVKPSQTLSLTCTVSGGSISSGDYFWSWIRQLPGKGLEWIGHIHNSGTTYYNPSLKSRVTISVDTSKKQFSLRLSSVTAADTAVYYCARDRGGDYYYGMDVWGQGTTVTVSSASTKGKVAACKEKVAALKEKVAALKEKVAALKE
notes: also called diabody with the VL and VH Domains of conatumumab
On to B3, for which, in experiment [1], the Kd worked out at 16.4 nM.

B4: DR5 mAb 1 (antibody, V domains shown)
VH: EVKFLESGGGLVQPGGSLKLSCVASGFDFSRYWMSWVRQAPGKGLEWIGEINPDSNTINYTPSLKDKFIISRDNAKNTLYLQMTKVRSEDTALYYCTRRAYYGNPAWFAYWGQGTLVTVSS
VL: DIVLTQSPASLAVSLGQRATISCRASKSVSSSGYSYMHWYQQKPGQPPKVLIFLSSNLDSGVPARFSGSGSGTDFTLNIHPVEDGDAATYYCQHSRDLPPTFGGGTKLEIK
notes: also called anti-human DR5 monoclonal antibody DR5 mAb 1
B4: in the experiment with histidine tagged TRAIL, the binding result is recorded as “no binding”. For the same molecule, in the experiment with human DR5, the “EC50 (read off the curve)” value was around 1 nM.

B5: DR5 mAb 2 (antibody, V domains shown)
VH: KVQLQQSGAELVKPGASVKLSCKASGYTFTEYILHWVKQKSGQGLEWIGWFYPGNNNIKYNEKFKDKATLTADKSSSTVYMELSRLTSEDSAVYFCARHEQGPGYFDYWGQGTTLTVSS
VL: DIVMTQSHKFMSTSVGDRVSITCKASQDVNTAVAWYQQKPGQSPKLLIYWASTRHTGVPDRFTGSGSGTDYTLTIKSVQAEDLTLYYCQQHYITPWTFGGGTKLEIK
notes: It is a murine antibody; also called murine anti-human antibody DR5 mAb 2; DR mAb 2
With B5, the binding result with histidine tagged TRAIL is “no binding”.

B6: DR5 mAb 3×CD3 mAb 2 (bispecific antibody)
chain 1: SELTQDPAVSVALGQTVRITCSGDSLRSYYASWYQQKPGQAPVLVIYGANNRPSGIPDRFSGSSSGNTASLTITGAQAEDEADYYCNSADSSGNHVVFGGGTKLTVLGGGGSGGGGEVQLVESGGGLVQPGGSLRLSCAASGFTFSTYAMNWVRQAPGKGLEWVGRIRSKYNNYATYYADSVKGRFTISRDDSKNSLYLQMNSLKTEDTAVYYCVRHGNFGNSYVSWFAYWGQGTLVTVSSASTKGEVAACEKEVAALEKEVAALEKEVAALEK
chain 2: QAVVTQEPSLTVSPGGTVTLTCRSSTGAVTTSNYANWVQQKPGQAPRGLIGGTNKRAPWTPARFSGSLLGGKAALTITGAQAEDEADYYCALWYSNLWVFGGGTKLTVLGGGGSGGGGEVQLVQSGGGVERPGGSLRLSCAASGFTFDDYAMSWVRQAPGKGLEWVSGINWQGGSTGYADSVKGRVTISRDNAKNSLYLQMNSLRAEDTAVYYCAKILGAGRGWYFDYWGKGTTVTVSSASTKGKVAACKEKVAALKEKVAALKEKVAALKE
notes: also called diabody with the VL and VH Domains of drozitumab
For the molecule B6, the Kd in experiment [1] is 13.3 nM.
